Measured values reported in paper PMC4160250 (PLoS ONE, 2014).
Values belong to the binder of their own block, whether it stands above or below them.

B1: UbE1, recombinant, purified (enzyme, mouse, UniProt Q02053 1-1058, looked up)
chain: MSSSPLSKKRRVSGPDPKPGSNCSPAQSALSEVSSVPTNGMAKNGSEADIDESLYSRQLYVLGHEAMKMLQTSSVLVSGLRGLGVEIAKNIILGGVKAVTLHDQGTTQWADLSSQFYLREEDIGKNRAEVSQPRLAELNSYVPVTAYTGPLVEDFLSSFQVVVLTNSPLEAQLRVGEFCHSRGIKLVVADTRGLFGQLFCDFGEEMVLTDSNGEQPLSAMVSMVTKDNPGVVTCLDEARHGFETGDFVSFSEVQGMIQLNGCQPMEIKVLGPYTFSICDTSNFSDYIRGGIVSQVKVPKKISFKSLPASLVEPDFVMTDFAKYSRPAQLHIGFQALHQFCALHNQPPRPRNEEDATELVGLAQAVNARSPPSVKQNSLDEDLIRKLAYVAAGDLAPINAFIGGLAAQEVMKACSGKFMPIMQWLYFDALECLPEDKEALTEEKCLPRQNRYDGQVAVFGSDFQEKLSKQKYFLVGAGAIGCELLKNFAMIGLGCGEGGEVVVTDMDTIEKSNLNRQFLFRPWDVTKLKSDTAAAAVRQMNPYIQVTSHQNRVGPDTERIYDDDFFQNLDGVANALDNIDARMYMDRRCVYYRKPLLESGTLGTKGNVQVVIPFLTESYSSSQDPPEKSIPICTLKNFPNAIEHTLQWARDEFEGLFKQPAENVNQYLTDSKFVERTLRLAGTQPLEVLEAVQRSLVLQRPQTWGDCVTWACHHWHTQYCNNIRQLLHNFPPDQLTSSGAPFWSGPKRCPHPLTFDVNNTLHLDYVMAAANLFAQTYGLTGSQDRAAVASLLQSVQVPEFTPKSGVKIHVSDQELQSANASVDDSRLEELKATLPSPDKLPGFKMYPIDFEKDDDSNFHMDFIVAASNLRAENYDISPADRHKSKLIAGKIIPAIATTTAAVVGLVCLELYKVVQGHQQLDSYKNGFLNLALPFFGFSEPLAAPRHQYYNQEWTLWDRFEVQGLQPNGEEMTLKQFLDYFKTEHKLEITMLSQGVSMLYSFFMPAAKLKERLDQPMTEIVSRVSKRKLGRHVRALVLELCCNDESGEDVEVPYVRYTIR
notes: also called purified UbE1; source: E. coli (vector pET28a), purified
B3: His-tagged DC-UbP (natural protein, human, UniProt Q8WUN7 1-234, looked up)
chain: MGGCVGAQHDSSGSLNENSEGTGVALGRNQPLKKEKPKWKSDYPMTDGQLRSKRDEFWDTAPAFEGRKEIWDALKAAAHAFESNDHELAQAIIDGANITLPHGALTECYDELGNRYQLPVYCLAPPINMIEEKSDIETLDIPEPPPNSGYECQLRLRLSTGKDLKLVVRSTDTVFHMKRRLHAAEGVEPGSQRWFFSGRPLTDKMKFEELKIPKDYVVQVIVSQPVQNPTPVEN
notes: DC-UbP / UBTD2, human, full-length; vector pET22b(+); 15N-labelled (M9 medium) in the NMR titrations; also called His6-DC-UbP; full-length DC-UbP; source: E. coli, purified (Ni-NTA, Superdex-75)
B4: GST-fused UFD domain of UbE1 (residues 950-1058) (domain or fragment)
chain: not shown
notes: UbE1, residues 950-1058 (C-terminal Ub-fold domain, UFD), from the UbE1 that was cloned from a mouse cDNA library; vector pGEX-4T-3; also called GST-UFD; C-terminal Ub-fold domain; source: E. coli, purified

What was measured:
Conditions in all cases: both partners purified
[1] = target: B3; assay: NMR titration; 15N-labelled DC-UbP (100 uM) titrated stepwise with unlabelled USP5, UbE1, FH or SCCH; 1H-15N HSQC, 20 mM phosphate, 50 mM NaCl, pH 6.5, 298 K
[2] = target: B4; assay: NMR titration; 15N-labelled UbP_N or UbP_C titrated with GST-UFD at a molar ratio of 1:3; peak intensity changes
[3] = target: B1; assay: NMR titration; 15N-labelled DC-UbP (100 uM) titrated stepwise with unlabelled USP5, UbE1, FH or SCCH; 1H-15N HSQC, 20 mM phosphate, 50 mM NaCl, pH 6.5, 298 K
[4] = target: B3; assay: NMR titration; 15N-labelled DC-UbP (20 uM in Fig. S4C) titrated with GST-UFD, up to 5:1; relative peak intensities

Binder: B1
mean relative peak intensity of the UBD domain of DC-UbP at 1:1 molar ratio (free DC-UbP = 1) [1]: 0.54 | mean relative peak intensity of the UbL domain of DC-UbP at 1:1 molar ratio (free DC-UbP = 1) [1]: 0.39

binding result [2]: binds
B2: UbP_C (C-terminal part of DC-UbP, residues 129-234), His-tagged (domain or fragment, human, UniProt Q8WUN7 129-234, looked up)
chain: MIEEKSDIETLDIPEPPPNSGYECQLRLRLSTGKDLKLVVRSTDTVFHMKRRLHAAEGVEPGSQRWFFSGRPLTDKMKFEELKIPKDYVVQVIVSQPVQNPTPVEN
notes: 15N-labelled where it is the observed protein of an NMR titration, unlabelled where it is titrated into 15N-UBA1; also called UbL domain of DC-UbP; UbL; source: E. coli, purified (Ni-NTA, Superdex-75)

Binder: B3
binding result [3]: binds

Binder: B4
mean relative peak intensity of the UBD domain of DC-UbP at 5:1 molar ratio [4]: 0.69 | mean relative peak intensity of the UbL domain of DC-UbP at 5:1 molar ratio [4]: 0.44
